{"source": "IntAct's records for PubMed 24132237", "molecular_target": "wasf2_human WASF2 (UniProt Q9Y6W5)"}
{"substance": "Ras-related C3 botulinum toxin substrate 1 (Homo sapiens) (from UniProt P63000-1) Q61L", "values": [{"measurement": "effect of a mutation on the interaction", "result": "increasing interaction strength"}]}
